Key:
[1] = biological target: T1, HLA-PEPTIDE target G2: HLA-A*01:01_…, recombinant soluble complex (human, enzymatically biotinylated (BirA)); assay: BLI, antibody from 100 nM in 1:2 steps, 1:1 model; apparent KD
T1 construct: also called G2-pHLA

[2] = biological target: T1, HLA-PEPTIDE target G2: HLA-A*01:01_…, …; assay: BLI
[3] = biological target: T2, HLA-A*01:01_… (G2) presented on cells (human); assay: flow cytometry on pulsed K562 cells, against off target peptide [..] and unpulsed cells
T2 construct: whole, on cells

[4] = biological target: T3, HLA-B*35:01 (alpha chain with beta-2 microglobulin), recombinant (human); assay: conditional ligand exchange, stability ELISA
T3 construct: also called HLA complex of the conditional ligand exchange / stability ELISA

B1: 4-G2(1H11)-OKT3 (bispecific antibody, human IgG1, kappa, N297Q)
chain: not shown
heavy: not shown
light: QIVLTQSPAIMSASPGEKVTMTCSASSSVSYMNWYQQKSGTSPKRWIYDTSKLASGVPAHFRGSGSGTSYSLTISGMEAEDAATYYCQQWSSNPFTFGSGTKLEINRTVAAPSVFIFPPSDEQLKSGTASVVCLLNNFYPREAKVQWKVDNALQSGNSQESVTEQDSKDSTYSLSSTLTLSKADYEKHKVYACEVTHQGLSSPVTKSFNRGEC
notes: also called format #4 (scFv/scFv-Fab): scFv G2(1H11), Fab OKT3
- Kd [1]: 1.27 nM

B2: 3-G2(1H11)-hOKT3 (bispecific antibody, human IgG1, kappa, N297Q)
chain: not shown
heavy: QVQLVQSGAEVKKPGASVKVSCKASGYTFTRYTMHWVRQAPGQGLEWMGYINPSRGYTNYNQKFKDRVTLTTDKSSSTAYMELSSLRSEDTAVYYCARYYDDHYSLDYWGQGTLVTVSSASTKGPSVFPLAPSSKSTSGGTAALGCLVKDYFPEPVTVSWNSGALTSGVHTFPAVLQSSGLYSLSSVVTVPSSSLGTQTYICNVNHKPSNTKVDKRVEPKSCDKTHTCPPCPAPELLGGPSVFLFPPKPKDTLMISRTPEVTCVVVDVSHEDPEVKFNWYVDGVEVHNAKTKPREEQYQSTYRVVSVLTVLHQDWLNGKEYKCKVSNKALPAPIEKTISKAKGQPREPQVCTLPPSREEMTKNQVSLSCAVKGFYPSDIAVEWESNGQPENNYKTTPPVLDSDGSFFLVSKLTVDKSRWQQGNVFSCSVMHEALHNRFTQKSLSLSPGK
light: DIQMTQSPSSLSASVGDRVTITCSASSSVSYMNWYQQKPGKAPKRLIYDTSKLASGVPSRFSGSGSGTDFTLTISSLQPEDFATYYCQQWSSNPFTFGQGTKLEIKRTVAAPSVFIFPPSDEQLKSGTASVVCLLNNFYPREAKVQWKVDNALQSGNSQESVTEQDSKDSTYSLSSTLTLSKADYEKHKVYACEVTHQGLSSPVTKSFNRGEC
notes: also called 3-hOKT3-G2(1H11)
- binding result [2]: binds
- binding result [3]: binds

Binder: EVDPIGHVY (also called G5 peptide) [peptide EVDPIGHVY]
- binding result [4]: binds

From patent publication US20220162320A1 (published 2022)
